Substitutions are numbered along the chain they refer to. In names and notes the source's numbering stands.
Columns and labels:
[1] = biological target: T1, cICDH (cytosolic NADP-ICDH, At1g65930) (Arabidopsis thaliana, UniProt Q9SRZ6, C363S); test: residual activity after preincubation, NADPH at […] nm; type: biochemical; conditions: 1 mM GSNO preincubation, 25 °C; covalent
T1 construct: ~90 kDa non-covalent dimer

[2] = biological target: T2, cICDH (cytosolic NADP-ICDH, At1g65930) (Arabidopsis thaliana, UniProt Q9SRZ6); test: residual activity after preincubation; LC-MS/MS of glutathionylated peptide; biotin switch; type: biochemical; conditions: 15 min at 25 °C before assay; covalent, S-glutathionylation of Cys363 and S-nitrosylation
T2 construct: ~90 kDa non-covalent dimer

[3] = biological target: the molecule itself; test: SEC; Superose 12 column, ~10 ug His-ICDH, 50 mM Tris pH 7.5, 5 mM MgCl2, 150 mM NaCl; standards aldolase 158 kDa, conalbumin 75 kDa, ovalbumin 43 kDa; eluted at ~90 kDa against a 48.3 kDa monomer
purified protein [4] = substrate: NC(=O)c1ccc[n+]([C@@H]2O[C@H](COP(=O)(O)OP(=O)(O)OC[C@H]3O[C@@H](n4cnc5c(N)ncnc54)[C@H](OP(=O)(O)O)[C@@H]3O)[C@@H](O)[C@H]2O)c1; test: purified protein; type: biochemical, Arabidopsis thaliana; conditions: NADP+ varied 0-1 mM, DL-isocitric acid as co-substrate, 5 mM MgCl2, 100 mM potassium phosphate pH 7.5, 25 °C
purified protein [5] = substrate: O=C(O)CC(C(=O)O)C(O)C(=O)O; test: purified protein; type: biochemical, Arabidopsis thaliana; conditions: 250 µM NADP+, 5 mM MgCl2, 100 mM potassium phosphate pH 7.5, 25 °C, DL-isocitric acid varied 0-5 mM
[6] = Table 1 labels the mutant C297S, text and methods say C363S

T1 sequence (Q9SRZ6 whole entry C363S): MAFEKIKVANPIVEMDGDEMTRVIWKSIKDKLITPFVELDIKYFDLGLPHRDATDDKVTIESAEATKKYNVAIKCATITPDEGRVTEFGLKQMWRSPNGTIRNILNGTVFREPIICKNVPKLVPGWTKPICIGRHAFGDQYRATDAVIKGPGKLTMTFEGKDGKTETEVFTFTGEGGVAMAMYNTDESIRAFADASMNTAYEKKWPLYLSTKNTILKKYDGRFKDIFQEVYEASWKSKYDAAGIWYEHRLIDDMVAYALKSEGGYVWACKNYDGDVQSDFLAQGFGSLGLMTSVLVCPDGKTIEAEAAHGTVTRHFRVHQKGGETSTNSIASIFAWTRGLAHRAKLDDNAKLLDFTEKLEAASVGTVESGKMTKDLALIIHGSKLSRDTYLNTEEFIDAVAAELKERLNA

N[C@@H](CCC(=O)N[C@@H](CSN=O)C(=O)NCC(=O)O)C(=O)O [GSNO]
activity after 1 mM GSNO [1]: cICDH C363S was found to be less affected by GSNO treatment than the wild-type enzyme | activity at increasing GSNO [2]: both increasing concentrations of GSNO and GSSG progressively inhibited the cICDH activity

B1: cytosolic NADP-dependent isocitrate dehydrogenase (cICDH), recombinant His-tagged (enzyme, Arabidopsis thaliana, UniProt Q9SRZ6 1-410, looked up)
chain: MAFEKIKVANPIVEMDGDEMTRVIWKSIKDKLITPFVELDIKYFDLGLPHRDATDDKVTIESAEATKKYNVAIKCATITPDEGRVTEFGLKQMWRSPNGTIRNILNGTVFREPIICKNVPKLVPGWTKPICIGRHAFGDQYRATDAVIKGPGKLTMTFEGKDGKTETEVFTFTGEGGVAMAMYNTDESIRAFADASMNTAYEKKWPLYLSTKNTILKKYDGRFKDIFQEVYEASWKSKYDAAGIWYEHRLIDDMVAYALKSEGGYVWACKNYDGDVQSDFLAQGFGSLGLMTSVLVCPDGKTIEAEAAHGTVTRHFRVHQKGGETSTNSIASIFAWTRGLAHRAKLDDNAKLLDFTEKLEAACVGTVESGKMTKDLALIIHGSKLSRDTYLNTEEFIDAVAAELKERLNA
notes: cytosolic NADP-dependent isocitrate dehydrogenase, Arabidopsis thaliana, At1g65930; predicted mass 48.3 kDa including the N-terminal His-tag; also called His-ICDH; His-cICDH; source: E. coli BL21, purified (Ni2+-Sepharose); not shown: His-tag, N-terminal, kept
stoichiometry N [3]: 2 | Km (purified protein [4]): 28 µM | kcat (purified protein [4]): 5.81 s⁻¹ | Km (purified protein [5]): 99 µM | kcat (purified protein [5]): 4.93 s⁻¹ | kcat/Km (purified protein [5]): 49700 M⁻¹ s⁻¹

B2: cICDH (cytosolic NADP-ICDH, At1g65930) (Arabidopsis thaliana; C363S) (protein)
chain: B1 chain with C363S
notes: ~90 kDa non-covalent dimer
Km (purified protein [5]; [6]): 95 µM | kcat (purified protein [5]; [6]): 4.31 s⁻¹
